B1: RB537 (peptide)
peptide: MADYKDDDDKGSLDESFYDWFERQLGKKGGSGGSWLDQEWAWVQCEVYGRGCPSAAAGAPVPYPDPLEPRPG
notes: Recombinant F1-F6 (Site 1-Site 2) dimer peptide with tags at both ends
B2: RB463 (other, not shown: large carriers)
chain: NNNNLGIEGRISEFIEGRAQPAMAFHENFYDWFVRQVSGGSFHENFYDWFVRQVSAAAGAPVPYPDPLEPRAA
notes: MBP fusion, uncleaved
B3: RB508 (peptide)
peptide: DYKDDDDKVRVDWLQRNANFYDWFVAELGGGSGGSGRVDWLQRNANFYDWFVAELGAAAGAPVPYPDPLEPRSA
B4: RB521 (peptide)
peptide: MADYKDDDDKGSLDESFYDWFERQLGKKGGSGGSGSLDESFYDWFERQLGKKAAAGAPVPYPDPLEPRPG
notes: Recombinant F1-F1 dimer peptide with tags at both ends
B5: RB539 (peptide)
peptide: MADYKDDDDKWLDQEWAWVQCEVYGRGCPSGGSGGSGSLDESFYDWFERQLGKKAAAGAPVPYPDPLEPRPG
notes: Recombinant F6-F1 (Site 2-Site 1) dimer peptide with tags at both ends
B6: RB517 (peptide)
peptide: DYKDDDDKHLCVLEELFWGASLFGYCSGGGSGGSHLCVLEELFWGASLFGYCSGAAAGAPVPYPDPLEPRAA
B7: RB540 (peptide)
peptide: MADYKDDDDKWLDQEWAWVQCEVYGRGCPSAAAGAPVPYPDPLEPRPG
notes: Recombinant F6 monomer peptide with tags at both ends
B8: RB435 (other, not shown: large carriers)
chain: NNNNLGIEGRISEFIEGRAQPAMAFHENFYDWFVRQVSGGSFHENFYDWFVRQVSGGSFHENFYDWFVRQVSAAAGAPVPYPDPLEPRAA
notes: MBP fusion, uncleaved
B9: RB509 (peptide)
peptide: DYKDDDDKVRVDWLQRNANFYAWFVAELGGGSGGSGGSGGSGRVDWLQRNANFYDWFVAELGAAAGAPVPYPDPLEPRAA
B10: RB626 (peptide)
peptide: MADYKDEIEAEWGRVRCLVYGRCVGGGGSGGSGGSGGSGSLDESFYDWFERQLGKKAAAGAPVPYPDPLEPRPG
notes: Recombinant F6-F1 dimer peptide with tags at both ends
B11: RB538 (peptide)
peptide: MADYKDDDDKGSLDESFYDWFERQLGKKGGSGGSGGSGGSWLDQEWAWVQCEVYGRGCPSAAAGAPVPYPDPLEPRPG
notes: as for B1
B12: RB436 (other, not shown: large carriers)
chain: NNNNLGIEGRISEFIEGRAQPAMAFHENFYDWFVRQVSGGSGGSGGSFHENFYDWFVRQVSAAAGAPVPYPDPLEPRAA
notes: MBP fusion, uncleaved
B13: RB437 (other, not shown: large carriers)
chain: NNNNLGIEGRISEFIEGRAQPAMAFHENFYDWFVRQVSAAAGAPVPYPDPLEPRAA
notes: MBP fusion, uncleaved
B14: RB622 (peptide)
peptide: MADYKDDDDKWLDQEWAWVQCEVYGRGCPSTPKPPTPPPLSADGSLDESFYDWFERQLGKKAAAGAPVPYPDPLEPRPG
notes: as for B10
B15: RB625 (peptide)
peptide: MADYKDDDDKWLDQEWAWVQCEVYGRGCPSQPPPPDITTHRADPQGSLDESFYDWFERQLGKKAAAGAPVPYPDPLEPRPG
notes: as for B10
B16: RB535 (peptide)
peptide: MADYKDDDDKGSLDESFYDWFERQLGKKGGSGGSGGSGGSGSLDESFYDWFERQLGKKAAAGAPVPYPDPLEPRPG
notes: as for B4

target: T1, Soluble IGF-1R (R&D Systems, Cat. # 391-GR/CF); recombinant human IGF-1R (human, UniProt P08069 31-935); test: phage ELISA, vs IR
T1 construct: extracellular domain; Eu3+-labelled in the TR-FRET assays; also called sIGF-1R; rhIGF-1R

IGF-1R/IR Comparison [ratio] | Binder
4.8 | RGKTAAVIVGRPADPFYHKLSELLQGG [26Hα-3-E8-IR]

target: T2, Insulin receptor prepared according to Bass et al., 1996: soluble human insulin receptor-immunoglobulin heavy … (human, UniProt P06213 28-956); test: phage ELISA vs milk
T2 construct: extracellular domain; Eu3+-labelled in TR-FRET; also called IR; sIR-Fc; not shown: immunoglobulin heavy chain constant domains that replace the transmembrane and i

Ratio over Background [fold] | Binder
1.1 | RGKTAAVIVGRPADPFYHKLSELLQGG [26Hα-3-E8-IR]

target: T1, Soluble IGF-1R (R&D Systems, Cat. # …); test: phage ELISA vs milk

Ratio over Background [fold] | Binder
5.3 | RGKTAAVIVGRPADPFYHKLSELLQGG [26Hα-3-E8-IR]

target: human insulin receptor (HIR) (human, UniProt P06213 28-1382, limits assumed); test: HIR Kd, Table 14; competition with 125I-insulin on solubilised HIR (method of Example 3, not restated for this table)

Kd [nM] | Binder
0.059 | B1
960 | B2
150 | B3
94 | MQNDDGSLDESFYDWFERQLGHHHHHHPG (F1 monomer with a His tag) [RB596]
44 | B4
210 | MGSLDESFYDWFERQLGEEEGGDHHHHHHPG (F1 monomer with a His tag) [RB569]
0.7 | B5
6000 | B6
~100 | B7
2000 | B8
55 | B9
0.3 | B10
0.017 | B11
410 | B12
8300 | B13
1 | B14
0.38 | B15
25 | MQNDDGSLDESFYDWFERQLGEEEGGDHHHHHHPG (F1 monomer with a His tag) [RB570]
~100 | B16

target: T2, Insulin receptor prepared according to …; test: phage ELISA, vs IGF-1R

IR/IGF-1R Comparison [ratio] | Binder
0.2 | RGKTAAVIVGRPADPFYHKLSELLQGG [26Hα-3-E8-IR]
